B1: TPR t1 (parent)
chain: GACCAAUCUGCCCUCAGAGCUCGAGAACAUCUUCGGAUGCAGAGGAGGCAGGCUUCGGUGGCGCGAUAGCGCCAACGUCCUCAACCUCCAAUGCAUCCCACCACAUGAUGAUGCCUGAAGAGCCUUGGUUUUUUG

The data set covers variants of B1. Kind of data set: polymerase ribozyme fitness, log enrichment relative to wild type (log ratio); higher = more active; in vitro selection for triplet polymerase activity. In outline:
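A single round of triplicate in vitro selection, including frozen incubation at −7 °C, was applied to PCR-built, transcribed mutant libraries of each subunit of a heterodimeric triplet polymerase ribozyme. Illumina sequencing of input and output libraries retained genotypes with ≥10 input reads and ≥1 read per output. Fitness is the base-2 logarithm of genotype enrichment divided by wild-type enrichment, from inverse-variance-weighted replicate averages.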
In the case of C15G G71U, the “polymerase ribozyme fitness (log ratio)” value was -1.94.

In the case of C15U U96C U129A, the “polymerase ribozyme fitness (log ratio)” value was -2.88.

C15G C70G U132C: the “polymerase ribozyme fitness (log ratio)” value is -6.73.

C15U G127U: the “polymerase ribozyme fitness (log ratio)” value was -2.39.

With C15A G52C G63U G93U C97U, the “polymerase ribozyme fitness (log ratio)” value is -5.64.

For C15A U126A, the “polymerase ribozyme fitness (log ratio)” value is -4.9.

As for C15A U78C C88A C102A, the “polymerase ribozyme fitness (log ratio)” value was -5.8.

Regarding C15U U33G C88G C115G, the “polymerase ribozyme fitness (log ratio)” value was -6.42.

For C15G U59A G63C, the “polymerase ribozyme fitness (log ratio)” value is -2.33.

Consider C15G G69U C94A U109A C124A, for which the “polymerase ribozyme fitness (log ratio)” value was -4.14.

As to C15G G48C C85U G122A, the “polymerase ribozyme fitness (log ratio)” value was -3.3.

In the case of C15U C53U G61U C97U, the “polymerase ribozyme fitness (log ratio)” value is -2.21.

Turning to C15U A37G C70U A100U A121C C123U, the “polymerase ribozyme fitness (log ratio)” value is -1.4.

As to C15U C72G A100U U130A, the “polymerase ribozyme fitness (log ratio)” value was -2.29.

In the case of C15U G44A C56A C62A G71C U131A, the “polymerase ribozyme fitness (log ratio)” value is -3.4.

As to C15U U78A C86G, the “polymerase ribozyme fitness (log ratio)” value was -3.29.

Turning to C15U A18U C31A G39U U54A C70U C114U C115G, the “polymerase ribozyme fitness (log ratio)” value is -5.12.

As to C15U C28U C72G U96C, the “polymerase ribozyme fitness (log ratio)” value is -3.94.

Turning to C15U C72U G110C, the “polymerase ribozyme fitness (log ratio)” value was -5.35.

Consider C15G C40U G61A C89U A91C C123G, for which the “polymerase ribozyme fitness (log ratio)” value was -0.621.

Take C15U A41G G52U C62U A119U: the “polymerase ribozyme fitness (log ratio)” value is -2.59.

C15G G36A: the “polymerase ribozyme fitness (log ratio)” value is -4.46.

On to C15A G69U C101A C123U G127A, for which the “polymerase ribozyme fitness (log ratio)” value is -4.17.

C15A G42U C79U C115G C123A: the “polymerase ribozyme fitness (log ratio)” value was -5.36.

As for C15G U112G G122A, the “polymerase ribozyme fitness (log ratio)” value was -1.95.

For the variant C15U C56A C62A G110C, the “polymerase ribozyme fitness (log ratio)” value is -6.04.

As to C15A G36U A121G, the “polymerase ribozyme fitness (log ratio)” value stood at 0.928.

Regarding A16C A83C U106C C115U U125C, the “polymerase ribozyme fitness (log ratio)” value is -2.38.

In the case of C15U U21C C49G C62A G117A, the “polymerase ribozyme fitness (log ratio)” value is -1.27.

C15G G45C C102A G113U G122A: the “polymerase ribozyme fitness (log ratio)” value was -5.64.

Regarding C15U G44C A50C G61U U96C C104U, the “polymerase ribozyme fitness (log ratio)” value was -2.29.

In the case of C15A G45A C97U A121G U130G, the “polymerase ribozyme fitness (log ratio)” value was -0.808.

On to C15U A18U G44U G69U, for which the “polymerase ribozyme fitness (log ratio)” value is -5.2.

Regarding C15U C99U, the “polymerase ribozyme fitness (log ratio)” value was -3.99.

As for C15U C40U C114A, the “polymerase ribozyme fitness (log ratio)” value is -4.3.

Turning to C15U G25U A26U G51A C99U U112G C114G G135A, the “polymerase ribozyme fitness (log ratio)” value is -6.73.

In the case of C15U C49U U55G C73U, the “polymerase ribozyme fitness (log ratio)” value was -1.56.

In the case of C15A C73G, the “polymerase ribozyme fitness (log ratio)” value is -3.16.

As to C15G A43U A84U, the “polymerase ribozyme fitness (log ratio)” value is -5.64.

With C15U A43U G48A A100C A111G, the “polymerase ribozyme fitness (log ratio)” value was -5.15.

With C15A C124G, the “polymerase ribozyme fitness (log ratio)” value turned out to be 0.792.

In the case of C15U G52A C62U A74U A83U U132A, the “polymerase ribozyme fitness (log ratio)” value is -3.97.

On to C15U C20G G51A C98G U109A, for which the “polymerase ribozyme fitness (log ratio)” value is -2.04.

For C15G U38C C124G, the “polymerase ribozyme fitness (log ratio)” value stood at 0.313.

With C15U G36A G69U C72U, the “polymerase ribozyme fitness (log ratio)” value was -1.55.

Regarding C15U U38A G60U A83G, the “polymerase ribozyme fitness (log ratio)” value was -2.98.

With C15A G63U A68G A111G, the “polymerase ribozyme fitness (log ratio)” value was -7.51.

As for C15G G42A G69U C88G, the “polymerase ribozyme fitness (log ratio)” value is -2.25.

On to C15A C62U, for which the “polymerase ribozyme fitness (log ratio)” value is -2.04.

On to C15U C49A C62U U116A A121C U131G, for which the “polymerase ribozyme fitness (log ratio)” value was -3.93.

For C15A G39A G61A C123U, the “polymerase ribozyme fitness (log ratio)” value is -0.349.

Turning to C15U U59G U96C C102A G120C U133A, the “polymerase ribozyme fitness (log ratio)” value is -2.28.

C15U G60A G128A: the “polymerase ribozyme fitness (log ratio)” value was -2.6.

Take C15G G117A: the “polymerase ribozyme fitness (log ratio)” value was -1.61.

On to C15U U96A, for which the “polymerase ribozyme fitness (log ratio)” value is -1.57.

C15A G77U G122A C123A: the “polymerase ribozyme fitness (log ratio)” value is -2.19.

In the case of C15U C20A G42A C124A U130C, the “polymerase ribozyme fitness (log ratio)” value was -2.95.

For C15U U78G C114U, the “polymerase ribozyme fitness (log ratio)” value was -4.55.

In the case of C15U G110A, the “polymerase ribozyme fitness (log ratio)” value is -2.25.

As for C15A C114A, the “polymerase ribozyme fitness (log ratio)” value is -4.98.

In the case of C15A U106G, the “polymerase ribozyme fitness (log ratio)” value was -3.3.

Turning to C15A U59A C101A, the “polymerase ribozyme fitness (log ratio)” value is -3.37.

In the case of C15U G47A G69C C85A A119U C124U, the “polymerase ribozyme fitness (log ratio)” value is -3.68.

On to C15G U96C G117C U130G, for which the “polymerase ribozyme fitness (log ratio)” value stood at 0.208.

Take C15G A43U: the “polymerase ribozyme fitness (log ratio)” value was -3.43.

Take C15U G48U A103C C123G: the “polymerase ribozyme fitness (log ratio)” value is -6.34.

With C15U G35A A66U U109A U116A, the “polymerase ribozyme fitness (log ratio)” value was -5.44.

Consider C15U U54A U59A C80A C82G C123U, for which the “polymerase ribozyme fitness (log ratio)” value is -3.3.

Turning to C15A G47C U133C, the “polymerase ribozyme fitness (log ratio)” value was -3.12.

On to C15U G58A C79U, for which the “polymerase ribozyme fitness (log ratio)” value was -2.08.

As to C15U G117U G120A, the “polymerase ribozyme fitness (log ratio)” value is -1.56.

On to C15U C53U G69U, for which the “polymerase ribozyme fitness (log ratio)” value was -0.102.

As to C15G G25U C34G G60C U109G, the “polymerase ribozyme fitness (log ratio)” value is -6.48.

Turning to C15U A50U G71A C89U, the “polymerase ribozyme fitness (log ratio)” value was -5.22.

In the case of C15G U32C G36C C49G U59C G120C, the “polymerase ribozyme fitness (log ratio)” value was -4.02.

C15G A95C A119U: the “polymerase ribozyme fitness (log ratio)” value is -3.82.

For the variant C15U C49A U92C U106A, the “polymerase ribozyme fitness (log ratio)” value is -3.27.

As to C15U C72A G110U, the “polymerase ribozyme fitness (log ratio)” value is -2.17.

Turning to C15U C22U C72U G120C, the “polymerase ribozyme fitness (log ratio)” value was -3.96.

For the variant C15U A43U A84C, the “polymerase ribozyme fitness (log ratio)” value was -2.66.

In the case of C15U U59G C70U C104A, the “polymerase ribozyme fitness (log ratio)” value is -4.32.

As to C15U C64A C79A C98A G117U, the “polymerase ribozyme fitness (log ratio)” value is -6.93.

On to C15U A26U, for which the “polymerase ribozyme fitness (log ratio)” value is -5.06.

C15U C20U G42A A43C G113A: the “polymerase ribozyme fitness (log ratio)” value was -1.99.

The record behind these values is the RNAGym collection of RNA variant scans (doi:10.1073/pnas.2313332121).
